Results on two molecules are retold here after patent US9200265B2, “Anti-cocaine compositions and treatment” (priority 2006, dated 2015).

Series [1] concerns the target T1, CocE (Rhodococcus sp., UniProt Q9L9D7).
T1 construct: generating a full-length CocE gene encoding the T172R mutation; His6 (C); made in house; host or cells: E. coli (pET-22b(+))
Briefly: Stabilization against 37° C.-induced formation of high molecular weight CocE aggregates (gel). The settings on record: 0.1 mg/ml enzyme, mM range. It is filed as physicochemical, Rhodococcus sp. MB 1. How it is done: Plasmids containing the mutations were transformed into E. coli BL21 cells and IPTG-induced enzyme was purified on Ni-Agarose. Expressed proteins were then tested for enzymatic activity and for thermostability at 37° C. Enzyme activity was measured using the spectrophotometric assay as described in Example 1. Thermostability was also tested via the spectrophotometric assay by pre-incubation of both wild-type and mutants at 37° C. for various times. Additionally, the nature of the thermo-instability of both the wild-type and T172R mutant was analyzed by polyacrylamide gel electrophoresis under denaturing and non-denaturing conditions. Briefly, mutant and wild-type enzyme at 0.1 mg/ml were incubated at 37° C. for various time-points, cooled to 4° C., mixed with SDS-loading dye containing-mercaptoethanol and run on 10% SDS-PAGE gels (denaturing conditions) or run on native 10% polyacrylamide gels (non-denaturing conditions) at 4° C. Gels were fixed with 10% methanol, 7% acetic acid for 30 minutes, and then stained with Sypro-Ruby protein gel stain (Molecular Probes, Invitrogen) for 3 hours. Protein staining was visualized under UV-light using an AlphaImager™ 3400 (Alpha Innotech). Finally, the exact melting temperature of both the wild-type and T172R mutant were determined by circular dichroism using a JASCO-810 spectropolarimeter driven by a JASCO V500/FP-750 analysis program for Windows. The CD spectra were measured in millidegrees and normalized against PBS buffer.
(§1) Cocaine esterase (CocE) cleaves cocaine to produce Benzoic acid and Ecgonine methyl ester. Briefly, alternative substrates and inhibitors of cocaine, as well as compounds able to thermostabilize the enzyme, were investigated generally by substituting amide and thiol analogues at the reactive ester bond, or removing the bond (for inhibitors), substituting benzoyl analogues in place of the benzoic acid leaving group, and/or removing or altering the methyl-ester group on the ecgonine portion of the molecule. As discussed below, it was determined that some substrates, products, and inhibitors stabilized thermal denaturation of wild type CocE, as well as prevented thermally-induced aggregation in gel electrophoresis.
(§2) Cocaine is the natural substrate of Cocaine esterase (CocE). Cocaine cleavage was monitored by a drop in absorbance at 240 nm. Cocaine (mM range) prevented 37° C.-induced formation of high molecular weight CocE aggregates (0.1 mg/ml enzyme concentrations) (see, e.g., FIG. 33). Cocaine (uM quantities) stabilized 37° C.-induced activity loss (see, e.g., FIG. 34), although the mechanism of this stabilization is complicated due to substrate inhibition at higher concentrations.

Series [2] addresses T1, CocE. Briefly: Inhibition of CocE (cleavage of 4-nitrophenyl acetate). The format is biochemical, Rhodococcus sp. MB 1. How it is done: Benzoic acid prevented 37° C.-induced formation of high molecular weight CocE aggregates (0.1 mg/ml enzyme concentrations) (see, e.g., FIG. 35). Benzoic acid (uM quantities) stabilized 37° C.-induced activity loss (see, e.g., FIG. 36), although the mechanism of this stabilization is complicated due to substrate inhibition at higher concentrations.
CocE catalyzes the cleavage of 4-nitrophenyl acetate (4NPA) to 4-nitrophenol (4NP) and acetate. The cleavage reaction was monitored by observation of product formation at 400 nm. Both 4NP and 4NPA (mM range) prevented 37° C.-induced formation of high molecular weight CocE aggregates (0.1 mg/ml enzyme concentrations).

Series [3] addresses T1, CocE. Briefly: Stabilization of 37° C.-induced CocE activity loss. It is filed as biochemical, Rhodococcus sp. MB 1. The settings on record: uM quantities.
Text: as §1, §2

Series [4] can be described thus: Cocaine spectrophotometric assay (240 nm), Michaelis-Menten kinetics.
A short description of series [5]: Gel filtration of samples incubated at 37° C. The format is physicochemical. As for the experimental part: Higher Km values on day 3 were due to reuse of old cocaine.
Protection from aggregation of thermal stable CocE mutants was assessed using size exclusion chromatography. Briefly, enzymes were preincubated at 37° C. for 0 minutes or 60 minutes and resolved by size exclusion chromatography.
Background: SEC sorts molecules by how far they enter the pores of the column.

With `O=C(O)c1ccccc1` [Benzoic acid], on CocE [1], the “37° C.-induced formation of high molecular weight CocE aggregates” value is reported as “prevented”. Affinity on CocE [2] was put at a Ki of 310 µM. Also, the “37° C.-induced activity loss” value at CocE [3] is on record as “stabilized”.

B1: N197K (protein)
chain: MVDGNYSVASNVMVPMRDGVRLAVDLYRPDADGPVPVLLVRNPYDKFDVFAWSTQSTNWLEFVRDGYAVVIQDTRGLFASEGEFVPHVDDEADAEDTLSWILEQAWCDGNVGMFGVSYLGVTQWQAAVSGVGGLKAIAPSMASADLYRAPWYGPGGALSVEALLGWSALIGTGLITSRSDARPEDAADFVQLAAILKDVAGAASVTPLAEQPLLGRLIPWVIDQVVDHPDNDESWQSISLFERLGGLATPALITAGWYDGFVGESLRTFVAVKDNADARLVVGPWSHSNLTGRNADRKFGIAATYPIQEATTMHKAFFDRHLRGETDALAGVPKVRLFVMGIDEWRDETDWPLPDTAYTPFYLGGSGAANTSTGGGTLSTSISGTESADTYLYDPADPVPSLGGTLLFHNGDNGPADQRPIHDRDDVLCYSTEVLTDPVEVTGTVSARLFVSSSAVDTDFTAKLVDVFPDGRAIALCDGIVRMRYRETLVNPTLIEAGEIYEVAIDMLATSNVFLPGHRIMVQVSSSNFPKYDRNSNTGGVIAREQLEEMCTAVNRIHRGPEHPSHIVLPIIKRLEHHHHHH
modifications: Mutant CocE polypeptide
As for B1, the Km amounted to 34.8 µM in series [4] (Day 0, (0) at 37° C.); 24.2 µM in series [4] (Day 0, (60) at 37° C.); 102 µM in series [4] (Day 3 repeat, (0), old cocaine reused); 114 µM in series [4] (Day 3 repeat, (60), old cocaine reused). In addition, the “stability after 1 hour at 37° C.” value in series [4] (day 0, preliminary) is on record as “good stability”. Also, the gel filtration result in series [5] is “formation of aggregates”.

For orientation: Ki means the dissociation constant of the complex between target and ligand, obtained from inhibition or displacement. As a reminder, the Km is the concentration of substrate that gives half-maximal velocity.
